Data on one molecule can be found in PMC2063869 (The Journal of Cell Biology, 2006).

One assay deals with T1, MBP–Apm1-Δ2–158 (S. cerevisiae, UniProt Q00776 1-475, Δ2–158).
T1 sequence (looked up): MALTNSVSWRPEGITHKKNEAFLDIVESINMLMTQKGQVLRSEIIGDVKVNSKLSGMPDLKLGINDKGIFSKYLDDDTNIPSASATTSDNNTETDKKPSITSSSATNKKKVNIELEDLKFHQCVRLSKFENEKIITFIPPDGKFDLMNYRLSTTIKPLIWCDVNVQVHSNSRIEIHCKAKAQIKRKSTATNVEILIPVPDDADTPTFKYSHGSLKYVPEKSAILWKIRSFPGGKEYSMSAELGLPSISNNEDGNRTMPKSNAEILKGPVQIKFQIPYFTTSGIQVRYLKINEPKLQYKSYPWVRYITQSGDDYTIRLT
Nature of the assay: pull-down.

A further assay addresses T2, MBP-Apm1 (S. cerevisiae, UniProt Q00776 1-475).
T2 sequence (looked up): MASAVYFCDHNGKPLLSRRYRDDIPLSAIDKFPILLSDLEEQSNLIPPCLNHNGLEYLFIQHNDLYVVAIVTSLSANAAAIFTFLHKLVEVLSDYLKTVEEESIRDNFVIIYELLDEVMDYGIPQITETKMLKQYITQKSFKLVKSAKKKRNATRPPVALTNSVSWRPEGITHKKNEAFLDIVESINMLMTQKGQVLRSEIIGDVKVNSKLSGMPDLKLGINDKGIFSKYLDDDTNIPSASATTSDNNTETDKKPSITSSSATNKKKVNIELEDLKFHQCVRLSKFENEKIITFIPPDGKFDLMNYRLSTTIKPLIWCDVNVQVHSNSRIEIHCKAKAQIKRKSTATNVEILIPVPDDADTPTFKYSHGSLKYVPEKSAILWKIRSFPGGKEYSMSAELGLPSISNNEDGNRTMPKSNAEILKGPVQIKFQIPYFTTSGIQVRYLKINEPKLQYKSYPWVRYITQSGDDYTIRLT
Nature of the assay: pull-down.

B1: Ste13-GST (Ste13p cytosolic domain, residues 1–118, fused to the NH2 terminus of GST) (domain or fragment, S. cerevisiae, UniProt P33894 1-118, looked up)
chain: MSASTHSHKRKNSHLFPQRKSSNSSMDKPFFPNNDSVANTDPQSNENGHTINEIRPTEATIDVTDVPQTPFLQEQYSMRPRRESFQFNDIENQHHTHSFFSVNKFNRRWGEWSLPEKR
As to B1, the binding result in the assay with MBP–Apm1-Δ2–158 and in the assay with MBP-Apm1 was “binds” in each case.
